Laboratory results reported in publication PMC12312386, “Multiple transactivation domains of EZH2 bind to the TAZ2 domain of p300 and stimulate the acetyltransferase function of p300” (Biochemical Journal, 2025).
Numbering of substitutions follows the chain as printed. Numbers in names are those of the source.

Legend:
[1] = test system: FLAG-HA-tagged p300 catalytic core (aa 1035–1830 of p300); test: Histone acetyltransferase (HAT) assay, Western blot, recombinant nucleosome substrate; type: biochemical; settings: 1 μg p300 core, 2.5, 5 or 10 μg GST-tagged TADs, 1 μg nucleosome, 15 min
Experimental: Histone acetyltransferase assay
For HAT assays, FLAG-HA-tagged p300 core (aa 1035–1830 of p300) in a pCDH vector was expressed in 293 T cells for two days. Cells were lysed in lysis buffer (50 mM Tris-HCl pH 7.5, 300 mM NaCl, 1.5 mM MgCl2, 1 mM EDTA, 1% Triton100, 10% glycerol, 1 mM PMSF, and protease inhibitors) and sonicated. Cell lysates were incubated with anti-Flag M2 beads (Sigma) at 4° for 4 h. The beads were then washed three times with buffer (50 mM Tris-HCl pH 7.5, 500 mM NaCl, 1.5 mM MgCl2, 0.2 mM EDTA, 0.1% NP40, 10% glycerol, and 1 mM PMSF), and the protein was eluted with elution buffer (50 mM Tris-HCl pH 7.5, 300 mM NaCl, 1 mM DTT, 10% glycerol, and 0.4 mg/ml Flag peptide).
GST-tagged EZH2TADs (aa 119–267), EZH1TADs (aa 120–280), F176A/F237A EZH1TADs (EZH1 2A), and F146A/F176A/F237A/Y257A EZH1TADs (EZH1 4A) constructs in the pGEX-6p-1 vector were transformed into RosettaTM2 (DE3) pLysS competent cells (Novagen). Protein production was induced by incubating with 0.4 mM IPTG at 16°C for 20 h in LB. Cell pellets were resuspended in lysis buffer (50 mM Tris-HCl pH 8.0, 300 mM NaCl, 1 mM PMSF, and 1 × cOmpleteTM EDTA-free Protease Inhibitor Cocktail) and lysed by sonication. Lysates were centrifuged at 17,000 g for 15 min, and supernatants were incubated with Glutathione Sepharose® 4B beads (Sigma) at 4°C for 2 h. Beads were washed with lysis buffer twice, and proteins were eluted with elution buffer (50 mM Tris-HCl pH 8.0, 150 mM NaCl, 10% glycerol, and 15 mg/ml GSH).
Purified FLAG-HA-tagged p300 catalytic core fragment (1 μg) was incubated with increasing amounts of GST-tagged EZH2TADs and GST-tagged EZH1TADs (2.5, 5, or 10 μg) and the nucleosome (1 μg) in HAT reaction buffer (50 mM Tris-HCl pH 8.0, 100 mM NaCl, 10% glycerol, 1 mM DTT, […], and 1× cOmplete EDTA-free Protease Inhibitor Cocktail) at 30°C for 15 min. Reactions were stopped by boiling at 95°C for 5 min in 2×SDS loading buffer, and samples were analyzed by SDS-PAGE and Western blot. […]

GST-p300TAZ2 = test: Mass photometry (MP) of GST-p300TAZ2 with EZH2TAD constructs; type: binding, human; settings: 20 nM GST-p300TAZ2 alone
Experimental: [37]. […] After induction with isopropyl b-D-1-thiogalactopyranoside (IPTG), harvesting, and lysis in buffer [50 mM Tris pH 7.0, 1 M NaCl, 5 mM dithiothreitol (DTT), 1 mM phenylmethanesulfonylfluoride (PMSF) and DNase] by sonication, the proteins were purified on glutathione agarose beads (Pierce) and eluted with buffer containing reduced L-glutathione (Fisher). The GST tag was either cleaved with TEV protease overnight at 22°C or kept intact during subsequent purification steps. […] The EZH2TAD1 ([…]) construct was generated by deletion using Q5 Hot Start High-Fidelity kit (NEB) and confirmed by DNA sequencing. Both constructs were expressed in E. coli Rosetta-2 (DE3) pLysS cells grown in LB media and induced at an OD600 of 0.6-0.8 with 1 mM IPTG for 16 h at 16°C. Cells were harvested by centrifugation, suspended in buffer (50 mM Tris pH 7.5, 500 mM NaCl, 1% CHAPS, 2 mM DTT, 1 mM PMSF, Roche cOmplete Protease Inhibitor Cocktail, and DNase), and lysed by sonication. […] When necessary, EZH2TAD constructs were further purified using a Superdex 200 Increase 10/300 GL column (Cytiva) with monitoring at 205 and 280 nm. […] To overcome the minimum size limit, a GST-fusion construct was used for one of the components in each sample. […] Ten microliter of each sample was loaded into the sample wells of the silicon cassettes assembled onto MassGlass UC coverslips (Refeyn, Ltd.). […]

B1: EZH1 WT: GST-tagged EZH1TAD1-TAD2-TAD3 (aa 120–280) (protein)
chain: NFMVEDETVLCNIPYMGDEVKEEDETFIEELINNYDGKVHGEEEMIPGSVLISDAVFLELVDALNQYSDEEEEGHNDTSDGKQDDSKEDLPVTRKRKRHAIEGNKKSSKKQFPNDMIFSAIASMFPENGVPDDMKERYRELTEMSDPNALPPQCTPNIDGP
modifications: left off: GST, end not stated, kept
H3K18 acetylation by p300 core ([1]; 100 mM acetyl-CoA, 50 mM Tris-HCl pH 8.0, 30°C, H3K18ac Western blot): dose-dependent increase in H3K18 and H3K27 acetylation | H3K27 acetylation by p300 core ([1]; 100 mM acetyl-CoA, 50 mM Tris-HCl pH 8.0, 30°C, H3K27ac Western blot): dose-dependent increase in H3K18 and H3K27 acetylation

B2: EZH1 2A: GST-tagged F176A/F237A mutant of EZH1TAD1-TAD2-TAD3 (aa 120–280) (protein)
chain: B1 chain with F57A, F118A
modifications: left off: GST, end not stated, kept
stimulation of p300 enzymatic activity ([1]; mutants compared with EZH1 WT, 30°C, H3K18ac and H3K27ac Western blot): stimulation of the p300 enzymatic activity was decreased

B3: GST-p300TAZ2: GST-tagged human p300 TAZ2 domain, aa 1722–1812 (protein)
chain: AWTQSPGDSRRLSIQRCIQSLVHACQCRNANCSLPSCQKMKRVVQHTKGCKRKTNGGCPICKQLIALCCYHAKHCQENKCPVPFCLNIKQK
modifications: left off: GST, end not stated, kept
oligomeric state in the apo-state (GST-p300TAZ2): exists in a dimeric form | MP peak, apo GST-p300TAZ2 (GST-p300TAZ2; Figure 5a, room temperature, 50 mM Tris pH 7.5, 150 mM NaCl, 5 mM DTT): ~ 80 kDa
